Results as given in patent US8026218 (UNIVERSITY OF ARIZONA, dated 2011).
Bridge positions count the residues as written; N and C are the ends. Square brackets hold non-standard residues; d marks the D form. Primed or numbered codes have the meaning given here. Ends that are not written are not given here. * marks the point of attachment. NHBn(CF3)2 = C-terminal amide NH-Bn(CF3)2, a benzyl group carrying two CF3; NMe‑Bn(CF3)2 = C-terminal N-methyl bis(trifluoromethyl)benzyl amide; NMeBn(CF3)2 = C-terminal N-methyl bis(trifluoromethyl)benzyl amide; NH(3,5-(CF3)2-benzyl) = FC(F)(F)c1cc(CN*)cc(C(F)(F)F)c1; NMeBn(3,5-(CF3)2) = CN(Cc1cc(C(F)(F)F)cc(C(F)(F)F)c1)*; OBzl(3,5-(CF3)2) = FC(F)(F)c1cc(CO*)cc(C(F)(F)F)c1; Glc″ = glucosyl on the serine side-chain oxygen; NH‑Bn(CF3)2 = C-terminal Bn(CF3)2 amide; OBn(OMe)2 = C-terminal OBn(OMe)2 ester; OBn(CF3)2 = C-terminal Bn(CF3)2 ester; Dmt = Cc1cc(O)cc(C)c1C[C@H](N)C(=O)O; NMe(benzyl) = CN(Cc1ccccc1)*; Nle = CCCC[C@H](N)C(=O)O; Aib = CC(C)(N)C(=O)O; NHBn = c1ccc(CN*)cc1; OBn = c1ccc(CO*)cc1

Tests used:
[1] = target: T1, human δ opioid receptor (human, UniProt P41143 1-372); test: cell-based or functional assay
[2] = target: µ opioid receptor of the guinea pig isolated ileum (guinea pig, UniProt P97266 1-98); test: cell-based or functional assay
[3] = target: T1, human δ opioid receptor; test: radioligand competition vs [3H]DPDPE, membranes of hDOR cells
[4] = target: T2, rat NK1 receptor (rat, UniProt P14600 1-407); test: radioligand competition vs [3H]substance P, membranes of rNK1 CHO cells
T2 construct: whole, on cells; Used as membrane preparations of transfected CHO cells; also called rNK1; rat neurokinin-1 receptor

[5] = target: guinea pig NK1 receptor (guinea pig, UniProt P30547 1-407); test: cell-based or functional assay
[6] = target: T3, human NK1 receptor (human, UniProt P25103 1-407); test: radioligand competition vs [3H]substance P, membranes of hNK1 CHO cells
T3 construct: whole, on cells; Used as membrane preparations of transfected CHO cells; also called hNK1; human neurokinin-1 receptor

[7] = target: T4, rat µ opioid receptor (rat, UniProt P33535 1-398); test: cell-based or functional assay
[8] = target: T4, rat µ opioid receptor; test: radioligand competition vs [3H]DAMGO, membranes of rMOR cells

T3 sequence (P25103 whole entry): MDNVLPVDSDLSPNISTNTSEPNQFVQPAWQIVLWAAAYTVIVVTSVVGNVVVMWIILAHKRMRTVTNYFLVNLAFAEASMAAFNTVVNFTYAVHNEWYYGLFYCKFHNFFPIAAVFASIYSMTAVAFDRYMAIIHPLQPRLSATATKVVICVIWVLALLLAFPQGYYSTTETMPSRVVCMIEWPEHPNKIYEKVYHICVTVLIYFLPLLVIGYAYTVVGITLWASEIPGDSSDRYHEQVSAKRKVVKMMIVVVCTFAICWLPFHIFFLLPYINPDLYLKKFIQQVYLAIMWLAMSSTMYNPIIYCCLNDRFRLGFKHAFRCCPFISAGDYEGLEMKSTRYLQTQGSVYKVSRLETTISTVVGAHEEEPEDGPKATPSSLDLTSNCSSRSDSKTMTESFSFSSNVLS
Sequence of µ opioid receptor of the guinea pig isolated ileum (P97266 whole entry): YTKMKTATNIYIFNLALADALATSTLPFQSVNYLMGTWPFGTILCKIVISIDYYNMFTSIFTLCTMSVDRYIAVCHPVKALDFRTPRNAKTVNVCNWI
T1 sequence (P41143 whole entry, stated change not applied): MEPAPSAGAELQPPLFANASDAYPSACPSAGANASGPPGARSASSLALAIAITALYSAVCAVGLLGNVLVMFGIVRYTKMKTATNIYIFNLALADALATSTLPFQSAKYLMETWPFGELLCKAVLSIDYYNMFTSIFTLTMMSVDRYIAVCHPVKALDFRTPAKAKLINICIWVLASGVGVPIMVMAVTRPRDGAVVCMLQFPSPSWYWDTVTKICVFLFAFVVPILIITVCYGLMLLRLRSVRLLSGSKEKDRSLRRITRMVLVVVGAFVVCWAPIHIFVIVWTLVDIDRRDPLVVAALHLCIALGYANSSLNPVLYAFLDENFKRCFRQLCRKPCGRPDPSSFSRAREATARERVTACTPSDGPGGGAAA
T4 sequence (P33535 whole entry): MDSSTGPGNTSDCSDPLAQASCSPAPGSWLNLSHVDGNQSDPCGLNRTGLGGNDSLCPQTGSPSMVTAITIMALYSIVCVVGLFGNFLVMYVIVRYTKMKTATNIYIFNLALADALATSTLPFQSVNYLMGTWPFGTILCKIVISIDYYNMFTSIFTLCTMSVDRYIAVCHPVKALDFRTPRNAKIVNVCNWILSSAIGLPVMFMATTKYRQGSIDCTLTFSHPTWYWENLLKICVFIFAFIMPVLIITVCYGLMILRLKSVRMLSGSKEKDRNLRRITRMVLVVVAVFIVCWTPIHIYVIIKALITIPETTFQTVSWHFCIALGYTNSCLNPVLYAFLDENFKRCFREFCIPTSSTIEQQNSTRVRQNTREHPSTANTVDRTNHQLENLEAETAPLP
Sequence of guinea pig NK1 receptor (P30547 whole entry): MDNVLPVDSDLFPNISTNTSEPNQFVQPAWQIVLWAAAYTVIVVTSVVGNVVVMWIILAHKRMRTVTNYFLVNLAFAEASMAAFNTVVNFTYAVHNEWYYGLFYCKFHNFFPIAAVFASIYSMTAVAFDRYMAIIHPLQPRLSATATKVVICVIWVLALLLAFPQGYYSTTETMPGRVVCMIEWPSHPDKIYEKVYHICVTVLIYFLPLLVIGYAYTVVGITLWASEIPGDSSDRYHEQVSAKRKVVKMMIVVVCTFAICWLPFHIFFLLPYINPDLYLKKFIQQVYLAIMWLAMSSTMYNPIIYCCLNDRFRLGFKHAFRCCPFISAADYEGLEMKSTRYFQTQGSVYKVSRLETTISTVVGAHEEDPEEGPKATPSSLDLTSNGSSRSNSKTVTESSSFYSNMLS
T2 sequence (P14600 whole entry): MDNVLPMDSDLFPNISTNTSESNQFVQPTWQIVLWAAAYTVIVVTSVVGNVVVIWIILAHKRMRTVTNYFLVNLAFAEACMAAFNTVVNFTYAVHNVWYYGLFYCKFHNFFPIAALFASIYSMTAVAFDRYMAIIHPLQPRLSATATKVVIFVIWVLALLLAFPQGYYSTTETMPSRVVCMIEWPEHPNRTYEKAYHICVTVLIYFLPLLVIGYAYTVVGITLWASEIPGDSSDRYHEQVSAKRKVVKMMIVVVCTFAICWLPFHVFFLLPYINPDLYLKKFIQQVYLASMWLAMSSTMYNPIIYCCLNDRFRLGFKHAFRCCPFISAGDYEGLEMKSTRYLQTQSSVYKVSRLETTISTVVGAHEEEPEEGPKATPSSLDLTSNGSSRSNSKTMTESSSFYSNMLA

Binder | GTP binding hDOR EC50 [1] [nM] | GTP binding hDOR Emax [1] [%] | GPI/LMMP opioid(mu) agonist IC50 [2] | Ki [3] [nM] | Ki [4] [nM] | GPI/LMMP SP antagonist Ke [5] [nM] | Ki [6] [nM] | GTP binding rMOR Emax [7] [%] | GTP binding rMOR EC50 [7] [nM] | Ki [8] [nM]
Y[dA]GFMPLW-OH [TyrDAlaGlyPheMetProLeuTrpOH (TY043)] | 0.51 | 62 | 272 nM | 1.1 | 9850 | – | – | – | – | –
[Dmt][dA]GFMPLW-{OBzl(3,5-(CF3)2)} [DmtDAlaGlyPheMetProLeuTrpOBn(CF3)2 (TY033)] | 0.73 | 200 | 100 nM | 0.22 | 0.96 | 24.5 | 1.2 | – | – | –
Y[dA]GFMPLW-NHBn [TyrDAlaGlyPheMetProLeuTrpNHBn (TY025)] | 2.6 | 51.7 | 61.1 nM | 0.44 | – | 9.9 | – | 46.8 | – | –
Y[dA]GFMPLW-{NMeBn(CF3)2} [TyrDAlaGlyPheMetProLeuTrpNMeBn(CF3)2 (TY028)] | 12.9 | 59 | 971 nM | 2.15 | 2.01 | – | – | – | – | –
YAGFXPLW (not fully specified; Dmt at 1; D-Ala at 2; Nle at 5 (X); C-terminal NH-Bn-2,4-(OMe)2 amide) [DmtDAlaGlyPheNleProLeuTrpNHBn-2,4-(OMe)2 (TY054)] | – | – | – | 0.15 | – | – | 0.952 | – | – | –
Y[dA]GFM[dP]LW-{OBzl(3,5-(CF3)2)} [TyrDAlaGlyPheMetDProLeuTrpOBn(CF3)2 (TY024)] | – | – | – | 13.2 | – | – | – | 28 | 123 | –
YAGFXPLW (D-Ala at 2; Nle (norleucine) at 5 (X); C-terminal O-3,5-Bn(CF3)2 ester) [TyrDAlaGlyPheNleProLeuTrpOBn(CF3)2 (TY018)] | 4 | 131 | 372 nM | 1.8 | – | 7.93 | 0.14 | – | – | –
Y[dA]GF[Nle]S(Glc″)LW-{NH‑Bn(CF3)2} [TyrDAlaGlyPheNleSer(OGlu)LeuTrpNHBn(CF3)2 (TY044)] | – | – | – | – | – | – | 1.3 | 85 | 380 | 3370
Y[dA]GFMPLW-{OBzl(3,5-(CF3)2)} [TyrDAlaGlyPheMetProLeuTrpOBn(CF3)2 (TY005)] | 2.9 | 47.6 | 359 nM | 2.8 | 0.29 | 24.7 | – | 45.6 | – | –
Y[dC]GFMPLW-{OBzl(3,5-(CF3)2)} [TyrDCysGlyPheMetProLeuTrpOBn(CF3)2 (TY031)] | – | – | – | 55.4 | 7.06 | – | 0.847 | – | – | 172
Y[dA]GFFPLW-{NHBn(CF3)2} [TyrDAlaGlyPhePheProLeuTrpNHBn(CF3)2 (TY015)] | 81.4 | 142 | – | 12.5 | 0.98 | – | 0.192 | 64.4 | 176 | 53.7
Y[dA]GFFPLW-{NMeBn(3,5-(CF3)2)} [TyrDAlaGlyPhePheProLeuTrpNMeBn(CF3)2 (TY017)] | 122 | 125 | – | 26.5 | 0.57 | – | 0.213 | 62.4 | 349 | 74.7
Y[dC]GFCPLW-{NH(3,5-(CF3)2-benzyl)} (disulfide 2-5, also called [D-Cys2, Cys5]) [Tyr[DCysGlyPheCys]ProLeuTrpNHBn(CF3)2 (TY039)] | 50.9 | 37 | 10.1 % at 1 uM | 10.7 | 556 | 434 | – | 20 | 118 | –
Y[dA]GFMALW-{OBzl(3,5-(CF3)2)} [TyrDAlaGlyPheMetAlaLeuTrpOBn(CF3)2 (TY020)] | – | 26.4 | – | – | – | – | – | 51.4 | – | –
Y[dA]GFM-NH2 [TyrDAlaGlyPheMetNH2 (TY040)] | – | – | – | – | 1100 | – | 145 | – | – | –
Y[dA]GFMPLW-OBn [TyrDAlaGlyPheMetProLeuTrpOBn (TY029)] | 3.4 | 98 | 22.2 nM | – | 20.3 | 5.1 | – | 133 | – | –
Y[dA]GFPLW-{NMe‑Bn(CF3)2} [TyrDAlaGlyPheProLeuTrpNMeBn(CF3)2 (TY013)] | – | – | – | – | 6.05 | – | – | – | – | –
Y[dA]GFPLW-NHBn [TyrDAlaGlyPheProLeuTrpNHBn (TY008)] | – | – | – | – | 803 | – | 14 | – | – | –
YAGFXPLW (Dmt at 1; D-Ala at 2; Nle at 5 (X); C-terminal NMe-3,5-Bn(CF3)2 amide) [DmtDAlaGlyPheNleProLeuTrpNMeBn(CF3)2 (TY052)] | – | – | – | 0.46 | – | – | 0.21 | – | – | –

Binder | GTP binding hDOR EC50 [1] [nM] | GTP binding hDOR Emax [1] [%] | GPI/LMMP opioid(mu) agonist IC50 [2] | Ki [3] [nM] | Ki [4] [nM] | GPI/LMMP SP antagonist Ke [5] [nM] | Ki [6] [nM] | GTP binding rMOR Emax [7] [%] | GTP binding rMOR EC50 [7] [nM] | Ki [8] [nM]
Y[dA]GFMPLW-{NMe(benzyl)} [TyrDAlaGlyPheMetProLeuTrpNMeBn (TY026)] | 8.9 | 93 | – | 0.32 | 44.5 | – | – | – | – | –
Y[dA]GFPLW-OBn [TyrDAlaGlyPheProLeuTrpOBn (TY011)] | – | – | – | – | 659 | – | – | – | – | –
Y[dA]GFPLW-{NMe(benzyl)} [TyrDAlaGlyPheProLeuTrpNMeBn (TY010)] | – | – | – | – | 267 | – | 100 | – | – | –
Y[dC]GF[dC]PLW-{NH(3,5-(CF3)2-benzyl)} (disulfide 2-5) [Tyr[DCysGlyPheDCys]ProLeuTrpNHBn(CF3)2 (TY037)] | – | – | 284 nM | – | – | 4.7 | – | – | – | –
YAGFXPLW (D-Ala at 2; Nle at 5 (X); C-terminal NH-Bn(CF3)2 amide) [TyrDAlaGlyPheNleProLeuTrpNHBn(CF3)2 (TY045)] | 5 | 125 | 463 nM | 1 | – | 40.8 | 0.0028 | – | – | –
YXGFXPLW (D-Pen at 2 and 5 (X); disulfide 2-5 (cyclic); C-terminal NH-Bn(CF3)2 amide) [Tyr[DPenGlyPheDPen]ProLeuTrpNHBn(CF3)2 (TY049)] | – | – | – | – | 4.54 | – | 0.18 | 25 | – | 2050
YAGFXPLW (Dmt at 1; D-Ala at 2; Nle at 5 (X); C-terminal NH-Bn-3-(CF3) amide) [DmtDAlaGlyPheNleProLeuTrpNHBn-3-(CF3) (TY053)] | – | – | – | 4.1 | – | – | 1.04 | – | – | –
YXGFXPLW (D-Pen (D-penicillamine) at 2 (X); Pen (L-penicillamine) at 5 (X); disulfide 2-5 (cyclic); C-terminal NH-Bn(CF3)2 amide) [Tyr[DPenGlyPhePen]ProLeuTrpNHBn(CF3)2 (TY046)] | 17.2 | 15 | – | 1.7 | – | – | 0.0053 | – | – | 2330
Y[dA]GFM[Aib]LW-{OBn(CF3)2} [TyrDAlaGlyPheMetAibLeuTrpOBn(CF3)2 (TY022)] | – | 28 | – | – | – | – | – | 32 | 100 | –
Y[dA]GFMPLW-{OBn(OMe)2} [TyrDAlaGlyPheMetProLeuTrpOBn(OMe)2 (TY030)] | 0.8 | 61 | – | 0.93 | 9.53 | 4.1 | – | – | – | –
YAGFXPLW (Dmt (2',6'-dimethyl-L-tyrosine) at 1; D-Ala at 2; Nle at 5 (X); C-terminal NH-3,5-Bn(CF3)2 amide) [DmtDAlaGlyPheNleProLeuTrpNHBn(CF3)2 (TY050)] | – | – | – | – | – | – | 0.075 | – | – | –
MPLW-{OBzl(3,5-(CF3)2)} [MetProLeuTrpOBn(CF3)2 (TY036)] | – | – | – | 1280 | 0.99 | – | – | – | – | 4550
Y[dA]GFPLW-{NH(3,5-(CF3)2-benzyl)} [TyrDAlaGlyPheProLeuTrpNHBn(CF3)2 (TY012)] | – | – | – | – | 32.6 | – | 0.61 | – | – | –
[Dmt][dA]GFMPLW-{NH(3,5-(CF3)2-benzyl)} [DmtDAlaGlyPheMetProLeuTrpNHBn(CF3)2 (TY032)] | 1.2 | 24 | 18.6 nM | 0.12 | 2.3 | 7.5 | 0.008 | 74 | 62 | –
Y[dA]GFMPLW-{NH(3,5-(CF3)2-benzyl)} [TyrDAlaGlyPheMetProLeuTrpNHBn(CF3)2 (TY027)] | 8.6 | 58 | 488 nM | – | 7.27 | – | – | – | – | –
Y[dA]GFPLW-{OBzl(3,5-(CF3)2)} [TyrDAlaGlyPheProLeuTrpOBn(CF3)2 (TY001)] | – | – | – | – | – | – | 0.0023 | – | – | –
YAGFMPLW (D-Ala at 2; Met(O) (oxidized methionine) at 5; C-terminal O-3,5-Bn(CF3)2 ester) [TyrDAlaGlyPheMet(O)ProLeuTrpOBn(CF3)2 (TY023)] | – | 52.8 | 154 nM | 5.08 | 0.2 | 7.8 | 0.00015 | – | – | –
MPLW-{NHBn(CF3)2} [MetProLeuTrpNHBn(CF3)2 (TY051)] | – | – | – | – | 62 | – | 0.922 | – | – | 866
Y[dC]GF[Nle]P[dC]W-{NH(3,5-(CF3)2-benzyl)} (disulfide 2-7) [Tyr[DCysGlyPheNleProDCys]TrpNHBn(CF3)2 (TY038)] | – | – | 3 % at 1 uM | – | – | 12 | – | – | – | –
